The target of the experiment is other proteasome components. The experiment can be described thus: SEC. Background: In gel filtration, larger molecules generally elute earlier.

As to “PSMA4-BirA*-FLAG (from UniProt P25789 2-261) (natural protein)”, the share of the BirA* signal that co-elutes with proteasome components was 60%.
